Our source for the stoichiometry N values is article PMC8660880.

Usually stoichiometry N stands for the number of molecules, sites or subunits per partner or assembly.

This assay has as its target mS105 (Chlamydomonas reinhardtii (endogenous in strain CC-4351)). The experiment in a line: cryo-EM structure; single-particle reconstruction of the native small subunit (SSU) of the C. reinhardtii mitoribosome isolated from purified mitochondria; Monosome buffer; 5.49 A, focused refinement 4.19 A (body) and 4.47 A (head).

mS105 (natural protein) yielded a stoichiometry N of 3.
